Results: patent US20200115434A1 (EUREKA THERAPEUTICS, published 2020)
Values belong to the binder of their own block, whether it stands above or below them.

Columns and labels:
[1] = molecular target: T1, PE-labeled AFP158/HLA-A*02:01 tetramer (human, biotinylated via the BSP peptide linked to the C-terminal end of the extracellular domain); assay: flow cytometry, PE-labelled tetramer on transduced Jurkat cells
T1 construct: also called AFP158 tetramer; AFP158/HLA-A*02:01 tetramers; not shown: BSP peptide (BirA biotinylation site) at the C-terminus

[2] = molecular target: T1, PE-labeled AFP158/HLA-A*02:01 tetramer; assay: flow cytometry, PE-labelled tetramer on transduced J.RT3-T3.5 cells

- binding result [1]: binds
B1: anti-AFP158/HLA-A*02:01-abTCR-4 (other)
chain 1: QSVLTQPASVSGSPGQSITISCTGTSSDVGGYNYVSWYQQHPGKAPKLMIYDVNNRPSEVSNRFSGSKSGNTASLTISGLQAEDEADYYCSSYTTGSRAVFGGGTKLTVLGQPKANPTVTLFPPSSEELQANKATLVCLISDFYPGAVTVAWKADGSPVKAGVETTKPSKQSNNKYAASSYLSLTPEQWKSHRSYSCQVTHEGSTVEKTVAPTECSESSCDVKLVEKSFETDTNLNFQNLSVIGFRILLLKVAGFNLLMTLRLWSSDYKDHDGDYKDHDIDYKDDDDK
chain 2: EVQLVQSGAEVKKPGESLTISCKASGYSFPNYWITWVRQMSGGGLEWMGRIDPGDSYTTYNPSFQGHVTISIDKSTNTAYLHWNSLKASDTAMYYCARYYVSLVDIWGQGTLVTVSSASTKGPSVFPLAPSSKSTSGGTAALGCLVKDYFPEPVTVSWNSGALTSGVHTFPAVLQSSGLYSLSSVVTVPSSSLGTQTYICNVNHKPSNTKVDKRVEPKSCADCGFTSVSYQQGVLSATILYEILLGKATLYAVLVSALVLMAMVKRKDFYPYDVPDYA
notes: the junction between chain and tag is not described

- binding result [1]: binds
B2: anti-AFP158/HLA-A*02:01-abTCR-6 (other)
chain 1: EVQLVQSGAEVKKPGESLTISCKASGYSFPNYWITWVRQMSGGGLEWMGRIDPGDSYTTYNPSFQGHVTISIDKSTNTAYLHWNSLKASDTAMYYCARYYVSLVDIWGQGTLVTVSSASTKGPSVFPLAPSSKSTSGGTAALGCLVKDYFPEPVTVSWNSGALTSGVHTFPAVLQSSGLYSLSSVVTVPSSSLGTQTYICNVNHKPSNTKVDKRVEPKSCDHVKPKETENTKQPSKSCHKPKAIVHTEKVNMMSLTVLGLRMLFAKTVAVNFLLTAKLFFLYPYDVPDYA
chain 2: QSVLTQPASVSGSPGQSITISCTGTSSDVGGYNYVSWYQQHPGKAPKLMIYDVNNRPSEVSNRFSGSKSGNTASLTISGLQAEDEADYYCSSYTTGSRAVFGGGTKLTVLGQPKANPTVTLFPPSSEELQANKATLVCLISDFYPGAVTVAWKADGSPVKAGVETTKPSKQSNNKYAASSYLSLTPEQWKSHRSYSCQVTHEGSTVEKTVAPTECSMDPKDNCSKDANDTLLLQLTNTSAYYMYLLLLLKSVVYFAIITCCLLRRTAFCCNGEKSDYKDHDGDYKDHDIDYKDDDDK
notes: as for B1

- binding result [2]: binds
B3: anti-AFP158/HLA-A*02:01-abTCR-3 (other)
chain 1: EVQLVQSGAEVKKPGESLTISCKASGYSFPNYWITWVRQMSGGGLEWMGRIDPGDSYTTYNPSFQGHVTISIDKSTNTAYLHWNSLKASDTAMYYCARYYVSLVDIWGQGTLVTVSSASTKGPSVFPLAPSSKSTSGGTAALGCLVKDYFPEPVTVSWNSGALTSGVHTFPAVLQSSGLYSLSSVVTVPSSSLGTQTYICNVNHKPSNTKVDKRVEPKSCESSCDVKLVEKSFETDTNLNFQNLSVIGFRILLLKVAGFNLLMTLRLWSSDYKDHDGDYKDHDIDYKDDDDK
chain 2: QSVLTQPASVSGSPGQSITISCTGTSSDVGGYNYVSWYQQHPGKAPKLMIYDVNNRPSEVSNRFSGSKSGNTASLTISGLQAEDEADYYCSSYTTGSRAVFGGGTKLTVLGQPKANPTVTLFPPSSEELQANKATLVCLISDFYPGAVTVAWKADGSPVKAGVETTKPSKQSNNKYAASSYLSLTPEQWKSHRSYSCQVTHEGSTVEKTVAPTECSADCGFTSVSYQQGVLSATILYEILLGKATLYAVLVSALVLMAMVKRKDFYPYDVPDYA
notes: as for B1

- binding result [1]: binds
B4: anti-AFP158/HLA-A*02:01-abTCR-5 (other)
chain 1: QSVLTQPASVSGSPGQSITISCTGTSSDVGGYNYVSWYQQHPGKAPKLMIYDVNNRPSEVSNRFSGSKSGNTASLTISGLQAEDEADYYCSSYTTGSRAVFGGGTKLTVLGQPKANPTVTLFPPSSEELQANKATLVCLISDFYPGAVTVAWKADGSPVKAGVETTKPSKQSNNKYAASSYLSLTPEQWKSHRSYSCQVTHEGSTVEKTVAPTECSDHVKPKETENTKQPSKSCHKPKAIVHTEKVNMMSLTVLGLRMLFAKTVAVNFLLTAKLFFLYPYDVPDYA
chain 2: EVQLVQSGAEVKKPGESLTISCKASGYSFPNYWITWVRQMSGGGLEWMGRIDPGDSYTTYNPSFQGHVTISIDKSTNTAYLHWNSLKASDTAMYYCARYYVSLVDIWGQGTLVTVSSASTKGPSVFPLAPSSKSTSGGTAALGCLVKDYFPEPVTVSWNSGALTSGVHTFPAVLQSSGLYSLSSVVTVPSSSLGTQTYICNVNHKPSNTKVDKRVEPKSCMDPKDNCSKDANDTLLLQLTNTSAYYMYLLLLLKSVVYFAIITCCLLRRTAFCCNGEKSDYKDHDGDYKDHDIDYKDDDDK
notes: as for B1
